Laboratory results reported in US20020103111A1 (Takeda / Millennium, published 2002).
Bridge positions count the residues as written; N and C are the ends. Ends that are not written are not given here. R1 = not defined here

B1: Ac-Cys*-Gly-Leu-Asp-Thr-Ser-Leu-Gly-Cys* (peptide)
peptide: Ac-CGLDTSLGC
modifications: disulfide 1-9; not fully specified (C-terminus); printed as Ac-Cys*-Gly-Leu-Asp-Thr-Ser-Leu-Gly-Cys*
notes: also called Ex No 5; 00145-1B
B2: R1-Leu-Asp-Thr-Ser-Leu, L# 1276 (Table 4) (peptide)
peptide: R1-LDTSL
modifications: reading uncertain; also: printed as R1-Leu-Asp-Thr-Ser-Leu
notes: not tied

Assays:
[1] = biological target: T1, human α4β7 integrin (human, UniProt P13612 34-1032; P26010 20-798); test: inhibition of HUT 78 cell adhesion to murine MAdCAM-1/mCk
T1 construct: whole, on cells; assays run with Mn++; also called α4β7 on HUT 78 cells; α4β7 on RPMI 8866 cells
Experimental: The assay was performed in a 96-well format. Plates were coated overnight at 4° C. with 53 μl/well of a 5 μg/mL solution of rat anti-mCk in carbonate buffer. The plates were blocked for 1 hour at 37° C. with 100 μL/well of 1% BSA in PBS. The BSA/PBS solution was removed, and 50 μL of MAdCAM-mCk supernatant was added neat to each well. The assay was conducted under conditions in which capture antibody was the limiting reagent.
Cell adhesion was measured in the presence or absence of compounds. The compounds were resuspended in 100% DMSO, subsequently diluted 1:10 in water, and finally diluted again 1:10 in the assay: 50 μL of 2X Assay Bufler, 30 μL water, 20 μL of compound were added to each well.
Over this range, Four different concentrations were tested in duplicate.

[2] = biological target: T1, human α4β7 integrin; test: inhibition of RPMI 8866 cell adhesion to huMAdCAM-1-Ig

Row | Binder | IC50 [1] [µM] | IC50 [2] [µM]
1 | B1 | 266 | 
2 | B2 |  | 2.7
